According to US20140058068A1 (UNIVERSITY OF MIAMI, published 2014):
Square brackets hold non-standard residues; d marks the D form. Ends that are not written are not given here. * marks the point of attachment. Desaminotyrosyl = O=C(CCc1ccc(O)cc1)*; NMeY = CN[C@@H](Cc1ccc(O)cc1)C(=O)O; hArg = N=C(N)NCCCC[C@H](N)C(=O)O; Agmatine = N=C(N)NCCCCN*; NMeA = CN[C@@H](C)C(=O)O; Nle = CCCC[C@H](N)C(=O)O; Orn = NCCC[C@H](N)C(=O)O; dAbu = CC[C@@H](N)C(=O)O; Abu = CC[C@H](N)C(=O)O; GABA = NCCCC(=O)O

T1: GHRH receptor of human pituitary membrane homogenates (human, UniProt Q02643 23-423)
T1 construct: whole, on cells; Native receptor in pituitary membrane homogenates, not intact cells; also called hGH-RH receptor
T1 sequence (looked up): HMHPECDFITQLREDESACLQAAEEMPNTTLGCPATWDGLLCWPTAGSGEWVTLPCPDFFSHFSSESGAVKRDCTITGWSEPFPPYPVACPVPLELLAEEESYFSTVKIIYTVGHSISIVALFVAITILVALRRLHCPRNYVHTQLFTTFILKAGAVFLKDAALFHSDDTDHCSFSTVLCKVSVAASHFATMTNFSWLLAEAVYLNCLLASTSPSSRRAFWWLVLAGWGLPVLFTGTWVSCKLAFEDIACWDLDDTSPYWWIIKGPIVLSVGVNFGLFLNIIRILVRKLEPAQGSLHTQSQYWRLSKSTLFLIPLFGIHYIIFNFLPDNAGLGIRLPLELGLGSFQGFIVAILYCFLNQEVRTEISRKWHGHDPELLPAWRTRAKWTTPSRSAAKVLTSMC

B1: [N-Me-Tyr^1, Abu^2, Orn^12, Abu^15, Orn^21, Nle^27, Gab^30]hGH-RH(1-30)NH2 (peptide)
peptide: [NMeY][Abu]DAIFTNSYR[Orn]VL[Abu]QLSAR[Orn]LLQDI[Nle]SR[GABA]-NH2
modifications: N-terminus assumed
SMILES: CCCC[C@H](NC(=O)[C@@H](NC(=O)[C@H](CC(=O)O)NC(=O)[C@H](CCC(N)=O)NC(=O)[C@H](CC(C)C)NC(=O)[C@H](CC(C)C)NC(=O)[C@H](CCCN)NC(=O)[C@H](CCCNC(=N)N)NC(=O)[C@H](C)NC(=O)[C@H](CO)NC(=O)[C@H](CC(C)C)NC(=O)[C@H](CCC(N)=O)NC(=O)[C@H](CC)NC(=O)[C@H](CC(C)C)NC(=O)[C@@H](NC(=O)[C@H](CCCN)NC(=O)[C@H](CCCNC(=N)N)NC(=O)[C@H](Cc1ccc(O)cc1)NC(=O)[C@H](CO)NC(=O)[C@H](CC(N)=O)NC(=O)[C@@H](NC(=O)[C@H](Cc1ccccc1)NC(=O)[C@@H](NC(=O)[C@H](C)NC(=O)[C@H](CC(=O)O)NC(=O)[C@H](CC)NC(=O)[C@H](Cc1ccc(O)cc1)NC)[C@@H](C)CC)[C@@H](C)O)C(C)C)[C@@H](C)CC)C(=O)N[C@@H](CO)C(=O)N[C@@H](CCCNC(=N)N)C(=O)NCCCC(N)=O
notes: also called Peptide 25503
B2: [Dat^1, D-Abu^2, Orn^12, Abu^15, Orn^21, Nle^27, Gab^30]hGH-RH(1-30)NH2 (peptide)
chain: [Desaminotyrosyl][dAbu]DAIFTNSYR[Orn]VL[Abu]QLSAR[Orn]LLQDI[Nle]SR[GABA]-NH2
SMILES: CCCC[C@H](NC(=O)[C@@H](NC(=O)[C@H](CC(=O)O)NC(=O)[C@H](CCC(N)=O)NC(=O)[C@H](CC(C)C)NC(=O)[C@H](CC(C)C)NC(=O)[C@H](CCCN)NC(=O)[C@H](CCCNC(=N)N)NC(=O)[C@H](C)NC(=O)[C@H](CO)NC(=O)[C@H](CC(C)C)NC(=O)[C@H](CCC(N)=O)NC(=O)[C@H](CC)NC(=O)[C@H](CC(C)C)NC(=O)[C@@H](NC(=O)[C@H](CCCN)NC(=O)[C@H](CCCNC(=N)N)NC(=O)[C@H](Cc1ccc(O)cc1)NC(=O)[C@H](CO)NC(=O)[C@H](CC(N)=O)NC(=O)[C@@H](NC(=O)[C@H](Cc1ccccc1)NC(=O)[C@@H](NC(=O)[C@H](C)NC(=O)[C@H](CC(=O)O)NC(=O)[C@@H](CC)NC(=O)CCc1ccc(O)cc1)[C@@H](C)CC)[C@@H](C)O)C(C)C)[C@@H](C)CC)C(=O)N[C@@H](CO)C(=O)N[C@@H](CCCNC(=N)N)C(=O)NCCCC(N)=O
B3: [Dat^1, D-Ala^2, N-Me-Ala^8, Orn^12, Abu^15, Orn^21, Nle^27, Asp^28, Agm^29]hGH-RH(1-29) (peptide)
chain: [Desaminotyrosyl][dA]DAIFT[NMeA]SYR[Orn]VL[Abu]QLSAR[Orn]LLQDI[Nle]D[Agmatine]
SMILES: CCCC[C@H](NC(=O)[C@@H](NC(=O)[C@H](CC(=O)O)NC(=O)[C@H](CCC(N)=O)NC(=O)[C@H](CC(C)C)NC(=O)[C@H](CC(C)C)NC(=O)[C@H](CCCN)NC(=O)[C@H](CCCNC(=N)N)NC(=O)[C@H](C)NC(=O)[C@H](CO)NC(=O)[C@H](CC(C)C)NC(=O)[C@H](CCC(N)=O)NC(=O)[C@H](CC)NC(=O)[C@H](CC(C)C)NC(=O)[C@@H](NC(=O)[C@H](CCCN)NC(=O)[C@H](CCCNC(=N)N)NC(=O)[C@H](Cc1ccc(O)cc1)NC(=O)[C@H](CO)NC(=O)[C@H](C)N(C)C(=O)[C@@H](NC(=O)[C@H](Cc1ccccc1)NC(=O)[C@@H](NC(=O)[C@H](C)NC(=O)[C@H](CC(=O)O)NC(=O)[C@@H](C)NC(=O)CCc1ccc(O)cc1)[C@@H](C)CC)[C@@H](C)O)C(C)C)[C@@H](C)CC)C(=O)N[C@@H](CC(=O)O)C(=O)NCCCCNC(=N)N
B4: [Dat^1, D-Ala^2, Orn^12, Abu^15, Orn^21, Nle^27, Asp^28, Har^30]hGH-RH(1-30)NH2 (peptide)
chain: [Desaminotyrosyl][dA]DAIFTNSYR[Orn]VL[Abu]QLSAR[Orn]LLQDI[Nle]DR[hArg]-NH2
SMILES: CCCC[C@H](NC(=O)[C@@H](NC(=O)[C@H](CC(=O)O)NC(=O)[C@H](CCC(N)=O)NC(=O)[C@H](CC(C)C)NC(=O)[C@H](CC(C)C)NC(=O)[C@H](CCCN)NC(=O)[C@H](CCCNC(=N)N)NC(=O)[C@H](C)NC(=O)[C@H](CO)NC(=O)[C@H](CC(C)C)NC(=O)[C@H](CCC(N)=O)NC(=O)[C@H](CC)NC(=O)[C@H](CC(C)C)NC(=O)[C@@H](NC(=O)[C@H](CCCN)NC(=O)[C@H](CCCNC(=N)N)NC(=O)[C@H](Cc1ccc(O)cc1)NC(=O)[C@H](CO)NC(=O)[C@H](CC(N)=O)NC(=O)[C@@H](NC(=O)[C@H](Cc1ccccc1)NC(=O)[C@@H](NC(=O)[C@H](C)NC(=O)[C@H](CC(=O)O)NC(=O)[C@@H](C)NC(=O)CCc1ccc(O)cc1)[C@@H](C)CC)[C@@H](C)O)C(C)C)[C@@H](C)CC)C(=O)N[C@@H](CC(=O)O)C(=O)N[C@@H](CCCNC(=N)N)C(=O)N[C@@H](CCCCNC(=N)N)C(N)=O

Molecular target: GHRH receptor of human pituitary membrane homogenates (human) (UniProt Q02643)
Assay: radioligand competition, 125I-JV-1-42 (~0.2 nM) as competitor, human pituitary membrane homogenates

| IC50 [nM] | Relative affinity (Binding potency) vs JI-38 (fold, JI-38 = 1) | Molecule |
| --- | --- | --- |
| 0.87 | 5 | [N-Me-Tyr^1, D-Ala^2, Fpa5^6, Orn^12, Abu^15, Orn^21, Nle^27, Asp^28]hGH-RH(1-29)NH-CH3 (from UniProt P01286 32-60) (peptide) |
| 2.74 | 1.59 | [Dat^1, D-Ala^2, Gln^8, Orn^12, Abu^15, Orn^21, Nle^27, Asp^28, D-Arg^29]hGH-RH(1-29)NH-CH3 (from UniProt P01286 32-60) (peptide) |
| 1.47 | 2.96 | [N-Me-Tyr^1, D-Ala^2, Orn^12, Abu^15, Orn^21, Nle^27, Asp^28]hGH-RH(1-29)NH-CH2-CH3 (from UniProt P01286 32-60) (peptide) |
| 1.07 | 4.07 | [N-Me-Tyr^1, D-Ala^2, Orn^12, Abu^15, Orn^21, Nle^27, Gab^30]hGH-RH(1-30)NH2 (from UniProt P01286 32-61) (peptide) |
| 0.71 | 6.12 | [N-Me-Tyr^1, D-Ala^2, Gln^8, Orn^12, Abu^15, Orn^21, Nle^27, Asp^28, Apa^30]hGH-RH(1-30)NH2 (from UniProt P01286 32-61) (peptide) |
| 0.55 | 7.91 | [Dat^1, D-Ala^2, Gln^8, Orn^12, Abu^15, Orn^21, Nle^27, Asp^28]hGH-RH(1-29)NH-CH3 (from UniProt P01286 32-60) (peptide) |
| 3.44 | 1.26 | [Ac-N-Me-Tyr^1, D-Ala^2, Gln^8, Orn^12, Abu^15, Orn^21, Nle^27, Asp^28, Agm^29]hGH-RH(1-29) (from UniProt P01286 32-60) (peptide) |
| 1.56 | 2.79 | [N-Me-Tyr^1, D-Ala^2, Fpa5^6, Orn^12, Abu^15, Orn^21, Nle^27, Gab^30]hGH-RH(1-30)NH-CH3 (from UniProt P01286 32-61) (peptide) |
| 1.06 | 4.1 | [N-Me-Tyr^1, D-Ala^2, Orn^12, Abu^15, Orn^21, Nle^27, Asp^28]hGH-RH(1-29)NH-CH3 (from UniProt P01286 32-60) (peptide) |
| 0.16 | 27.2 | [N-Me-Tyr^1, D-Ala^2, Gln^8, Orn^12, Abu^15, Orn^21, Nle^27, Asp^28]hGH-RH(1-29)NH-CH3 (from UniProt P01286 32-60) (peptide) |
| 3.05 | 1.43 | [N-Me-Tyr^1, D-Ala^2, Fpa5^6, Orn^12, Abu^15, Orn^21, Nle^27, Asp^28, Agm^29]hGH-RH(1-29) (from UniProt P01286 32-60) (peptide) |
| 1.7 | 2.56 | [N-Me-Tyr^1, D-Ala^2, Orn^12, Abu^15, Orn^21, Nle^27, Asp^28, Agm^29]hGH-RH(1-29) (from UniProt P01286 32-60) (peptide) |
| 0.82 | 5.3 | [N-Me-Tyr^1, D-Ala^2, Gln^8, Orn^12, Abu^15, Orn^21, Nle^27, Asp^28, Agm^29]hGH-RH(1-29) (from UniProt P01286 32-60) (peptide) |

Molecular target: T1, GHRH receptor of human pituitary …
Assay: as above
Text: Normal human pituitaries were purchased from the National Hormone and Peptide Program (A. F. Parlow, Los Angeles, County Harbor-UCLA Medical Center, Torrance, Calif.).

| IC50 [nM] | Relative affinity (Binding potency) vs JI-38 | Molecule |
| --- | --- | --- |
| 1.18 | 3.67 fold, JI-38 = 1 | B1 |
| 1.44 | 3.02 fold, JI-38 = 1 | B2 |
| 0.86 | 5.06 fold, JI-38 = 1 | B3 |

Molecular target: T1, GHRH receptor of human pituitary …
Assay: radioligand competition, [His1,125I-Tyr10,Nle27]hGHRH(1-32)NH2 (0.2 nM) as competitor, human pituitary membrane homogenates
Text: Normal human pituitaries were purchased from the National Hormone and Peptide Program (A. F. Parlow, Los Angeles, County Harbor—UCLA Medical Center, Torrance, Calif.).

| IC50 [nM] | Relative affinity (Binding potency) vs GHRH | Relative affinity (Binding potency) vs JI-38 | Molecule |
| --- | --- | --- | --- |
| 0.14 | 42.3 fold, GHRH(1-29) = 1 | 13.9 fold, JI-38 = 1 | B4 |
